Target: T1, PaFAN1 (Pseudomonas aeruginosa, UniProt Q9I2N0 1-559)
T1 sequence: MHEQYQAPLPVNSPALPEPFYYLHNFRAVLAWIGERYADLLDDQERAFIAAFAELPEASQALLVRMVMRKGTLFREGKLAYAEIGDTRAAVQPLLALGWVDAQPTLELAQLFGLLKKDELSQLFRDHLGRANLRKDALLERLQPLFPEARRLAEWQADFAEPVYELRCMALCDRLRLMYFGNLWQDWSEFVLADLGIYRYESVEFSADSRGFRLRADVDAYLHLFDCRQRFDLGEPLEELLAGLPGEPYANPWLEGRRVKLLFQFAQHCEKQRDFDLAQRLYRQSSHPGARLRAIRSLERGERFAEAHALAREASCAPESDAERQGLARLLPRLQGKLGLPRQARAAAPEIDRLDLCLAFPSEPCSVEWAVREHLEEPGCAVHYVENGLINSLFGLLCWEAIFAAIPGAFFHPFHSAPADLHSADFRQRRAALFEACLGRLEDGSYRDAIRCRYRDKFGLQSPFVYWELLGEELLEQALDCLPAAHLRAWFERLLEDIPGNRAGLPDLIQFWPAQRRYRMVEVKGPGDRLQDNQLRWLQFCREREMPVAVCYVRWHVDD
Assay: crystal structure

B1: 5' flap DNA, 22-base template, 4-nt 5' flap (crystal I) (structured_DNA)
DNA 1: GAATGTGTGTCTCAATCCCAAC
DNA 2: GTTGGGATTG
DNA 3: AACCAGACACACATTC
  binding result: binds

Reference: PMC4201288
